{"source": "patent US20220249685A1", "about": "(SILVERBACK THERAPEUTICS, published 2022)", "binders": {"B1": {"name": "Antibody 55 (VH1-e G27Y, G55A, R66K, V67A, A71V / VKIII-L6) (antibody, V domains shown)", "VH": "QVQLVQSGAEVKKPGSSVKVSCKASGYTFSGYTMNWVRQAPGQGLEWMGLITPYNAASSYNQKFRGKATITVDKSTSTAYMELSSLRSEDTAVYYCARGGYDGRGFDYWGQGTTVTVSS", "VL": "EIVLTQSPATLSLSPGERATLSCSASSSVSYMHWYQQKPGQAPRLLIYDTSKLASGIPARFSGSGSGTDFTLTISSLEPEDFAVYYCQQWSKHPLTFGGGTKVEIK"}, "B2": {"name": "55-IgG1-TLR8 conjugate (antibody, V domains shown)", "VH": "B1 VH", "VL": "B1 VL", "modifications": "cysteines freed by TCEP reduction may carry the drug-linker; positions not given; cysteines freed by TCEP reduction carry the TLR8 agonist drug-linker; positions not given", "notes": "also called 55-TLR8"}, "B3": {"name": "Antibody 56 (VH1-e CDRgraft G55A / VKI-L12) (antibody, V domains shown)", "VH": "B1 VH with Y27G, K67R, A68V, V72A", "VL": "DIQMTQSPSTLSASVGDRVTITCSASSSVSYMHWYQQKPGKAPKLLIYDTSKLASGVPSRFSGSGSGTEFTLTISSLQPDDFATYYCQQWSKHPLTFGGGTKVEIK"}, "B4": {"name": "56-IgG1-TLR8 conjugate (antibody, V domains shown)", "VH": "B1 VH with Y27G, K67R, A68V, V72A", "VL": "B3 VL", "modifications": "cysteines freed by TCEP reduction may carry the drug-linker; positions not given; cysteines freed by TCEP reduction carry the TLR8 agonist drug-linker; positions not given", "notes": "also called 56-TLR8"}}, "note": "Where a chain is given by its changes, count along the chain named. Names may count otherwise.", "data": [{"molecular_target": "T1, human MSLN expressed on tumor cell lines (OVCAR3, NCI-N87) or on transfected HEK-293 cells (human, UniProt Q13421 296-598)", "T1 construct": "whole, on cells; also called human mesothelin", "T1 sequence (Q13421 other isoform, or with tags, fused parts or gaps limits assumed)": "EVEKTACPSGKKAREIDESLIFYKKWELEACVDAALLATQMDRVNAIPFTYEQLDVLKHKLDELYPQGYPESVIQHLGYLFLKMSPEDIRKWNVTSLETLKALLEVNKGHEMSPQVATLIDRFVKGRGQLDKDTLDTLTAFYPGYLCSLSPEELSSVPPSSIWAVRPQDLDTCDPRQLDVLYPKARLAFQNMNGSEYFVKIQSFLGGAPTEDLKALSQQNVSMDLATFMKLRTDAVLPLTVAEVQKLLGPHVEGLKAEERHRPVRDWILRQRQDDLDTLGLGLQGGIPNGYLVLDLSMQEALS", "test": "flow cytometry on NCI-N87 cells, anti-huIgG1-PE, MFI (Geo Mean)", "units": {"EC50 (read off the curve)": "pM"}, "values": [{"binder": "B1", "EC50 (read off the curve)": "~100"}, {"binder": "B2", "EC50 (read off the curve)": "~200"}, {"binder": "B3", "EC50 (read off the curve)": "~200"}, {"binder": "B4", "EC50 (read off the curve)": "~300"}]}, {"molecular_target": "T2, cynomolgus MSLN on transfected 293 cells (cynomolgus)", "T2 construct": "whole, on cells; also called cyno MSLN; cynomolgus mesothelin", "test": "flow cytometry on 293 cells transiently transfected with cyno MSLN, anti-huIgG1-PE, MFI (Geo Mean)", "units": {"EC50 (read off the curve)": "pM"}, "values": [{"binder": "B1", "EC50 (read off the curve)": "~80"}, {"binder": "B2", "EC50 (read off the curve)": "~100"}, {"binder": "B3", "EC50 (read off the curve)": "~100"}, {"binder": "B4", "EC50 (read off the curve)": "~200"}]}]}
